Source: patent US20260022175A1 (Chugai, published 2026)
Numbering of substitutions follows the chain as printed.

How the values were obtained:
Assay in all cases: SPR Biacore 8k+ 25C, antibody captured, FcγR analyte; mean
[1] = biological target: T1, human FcγRIa extracellular domain with C-terminal His tag (human, UniProt P12314 16-288)
T1 construct: also called hFcγRIa
Procedure: (§1) Here, Tremfya (Janssen Pharmaceutical K.K), which is an IgG1 antibody in which the L-chain is a X-chain, was also evaluated as a control. The binding activity was evaluated at 25° C. using as a running buffer 50 mM phosphate buffer, 150 mM NaCl, 0.05 w/v %-P20, pH7.4. As a molecule for ligand capture, CaptureSelect (trademark) Human Fab-lambda Kinetics Biotin Conjugate (ThermoFisher scientific) was immobilized onto a Series S Sensor chip SA sensor chip (Cytiva). An antibody solution prepared with the running buffer was allowed to interact with the SA sensor chip for capturing about 250 RU, or 500 RU, or about 1000 RU, of antibody. Then, hFcγRs and cyFcγRs diluted with the running buffer were allowed to bind to the captured antibodies. […] The chip was regenerated using 10 mM Glycine-HCl (pH 1.5), and measurements were performed by repeatedly capturing the antibodies. The binding activity of each antibody for each FcγR was evaluated by calculating the KD value using the Biacore Insight Evaluation Software with the Steady state model or 1:1 binding model.

[2] = biological target: T2, human FcγRIIa(H) extracellular domain with C-terminal His tag (human, UniProt P12318 34-217)
T2 construct: also called hFcγRIIa(H)
T2 sequence: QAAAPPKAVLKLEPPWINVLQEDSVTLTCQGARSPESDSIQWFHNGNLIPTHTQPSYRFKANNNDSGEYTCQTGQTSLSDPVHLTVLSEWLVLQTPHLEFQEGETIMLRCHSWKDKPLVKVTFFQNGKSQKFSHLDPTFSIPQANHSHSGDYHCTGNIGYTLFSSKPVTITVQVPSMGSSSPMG
Procedure: as §1

[3] = biological target: T3, human FcγRIIa(R) extracellular domain with C-terminal His tag (human, UniProt P12318 34-217)
T3 construct: also called hFcγRIIa(R)
T3 chain: T2 sequence with H134R
Procedure: as §1

[4] = biological target: T4, human FcγRIIb extracellular domain with C-terminal His tag (human, UniProt P31994 43-217)
T4 construct: also called hFcγRIIb
T4 sequence: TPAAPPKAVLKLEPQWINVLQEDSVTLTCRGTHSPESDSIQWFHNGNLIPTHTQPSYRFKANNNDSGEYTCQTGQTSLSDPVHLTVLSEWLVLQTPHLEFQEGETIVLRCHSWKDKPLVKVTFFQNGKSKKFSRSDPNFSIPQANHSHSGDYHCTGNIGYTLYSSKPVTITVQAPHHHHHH
Procedure: as §1

[5] = biological target: T5, human FcγRIIIa(V) extracellular domain with C-terminal His tag (human, UniProt P08637 17-208)
T5 construct: also called hFcγRIIIa(V)
Procedure: as §1

[6] = biological target: T6, human FcγRIIIa(F) extracellular domain with C-terminal His tag (human, UniProt P08637 17-208)
T6 construct: also called hFcγRIIIa(F)
Procedure: as §1

[7] = biological target: T7, cynomolgus monkey FcγRIIa3 extracellular domain with His tag (cynomolgus monkey)
T7 construct: also called cyFcγRIIa3
T7 chain: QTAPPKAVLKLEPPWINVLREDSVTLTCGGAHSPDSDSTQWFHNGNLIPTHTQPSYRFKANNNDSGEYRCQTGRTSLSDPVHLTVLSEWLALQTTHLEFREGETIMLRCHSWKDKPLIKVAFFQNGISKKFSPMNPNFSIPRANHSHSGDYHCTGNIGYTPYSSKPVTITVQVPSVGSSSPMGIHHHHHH
Procedure: as §1

[8] = biological target: T8, cynomolgus monkey FcγRIIb extracellular domain with His tag (cynomolgus monkey)
T8 construct: also called cyFcγRIIb
T8 chain: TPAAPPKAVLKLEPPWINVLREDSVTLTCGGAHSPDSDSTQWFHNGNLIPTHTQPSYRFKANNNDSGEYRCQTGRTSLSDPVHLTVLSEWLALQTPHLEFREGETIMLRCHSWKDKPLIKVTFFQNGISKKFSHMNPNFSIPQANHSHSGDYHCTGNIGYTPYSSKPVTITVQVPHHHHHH
Procedure: as §1

[9] = biological target: T9, cynomolgus monkey FcγRIIIa(R) extracellular domain with His tag (cynomolgus monkey, UniProt Q8SPW2 17-208)
T9 construct: also called cyFcγRIIIa(R)
Procedure: as §1

[10] = biological target: T10, cynomolgus monkey FcγRIIIa(S) extracellular domain with His tag (cynomolgus monkey, UniProt Q8SPW2 21-206 at identity 1.00))
T10 construct: also called cyFcγRIIIa(S)
T10 chain: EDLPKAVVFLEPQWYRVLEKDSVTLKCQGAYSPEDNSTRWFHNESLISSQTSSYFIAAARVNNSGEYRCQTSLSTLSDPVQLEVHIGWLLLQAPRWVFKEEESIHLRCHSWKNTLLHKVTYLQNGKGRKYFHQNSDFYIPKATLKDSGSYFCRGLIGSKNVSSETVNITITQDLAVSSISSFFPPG
Procedure: as §1

[11] = biological target: T11, cynomolgus monkey FcγRIa extracellular domain with His tag (cynomolgus monkey, UniProt P12314 16-288 (human entry))
T11 construct: also called cyFcγRIa
T11 chain: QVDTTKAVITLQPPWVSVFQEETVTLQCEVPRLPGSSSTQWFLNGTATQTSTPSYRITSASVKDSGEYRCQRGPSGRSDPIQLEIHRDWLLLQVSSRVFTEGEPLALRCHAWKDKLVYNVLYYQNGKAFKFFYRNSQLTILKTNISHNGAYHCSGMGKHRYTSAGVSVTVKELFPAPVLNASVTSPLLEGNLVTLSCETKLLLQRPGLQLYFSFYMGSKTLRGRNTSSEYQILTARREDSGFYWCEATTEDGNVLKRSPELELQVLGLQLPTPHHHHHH
Procedure: as §1

[12] = biological target: T12, cynomolgus monkey FcγRIIa1 extracellular domain with His tag (cynomolgus monkey)
T12 construct: also called cyFcγRIIa1
T12 chain: T7 chain with T95P, A121T, S128A, P133H, N135D
Procedure: as §1

[13] = biological target: T13, cynomolgus monkey FcγRIIa2 extracellular domain with His tag (cynomolgus monkey)
T13 construct: also called cyFcγRIIa2
T13 chain: T7 chain with I127K, K130N, P133H, R142Q
Procedure: as §1

T9 sequence (Q8SPW2 other isoform, or with tags, fused parts or gaps): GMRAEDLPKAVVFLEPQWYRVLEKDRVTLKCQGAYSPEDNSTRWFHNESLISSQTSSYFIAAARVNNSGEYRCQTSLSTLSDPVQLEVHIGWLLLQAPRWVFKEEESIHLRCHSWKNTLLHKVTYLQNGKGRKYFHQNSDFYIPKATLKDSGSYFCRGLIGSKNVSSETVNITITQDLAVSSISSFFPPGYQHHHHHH
T5 sequence (P08637 other isoform, or with tags, fused parts or gaps): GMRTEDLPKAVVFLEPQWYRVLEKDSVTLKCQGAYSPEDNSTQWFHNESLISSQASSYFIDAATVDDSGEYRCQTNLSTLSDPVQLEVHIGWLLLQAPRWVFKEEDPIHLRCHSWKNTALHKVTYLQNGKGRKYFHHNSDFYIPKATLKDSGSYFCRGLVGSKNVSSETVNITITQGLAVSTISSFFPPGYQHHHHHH
T6 sequence (P08637 other isoform, or with tags, fused parts or gaps): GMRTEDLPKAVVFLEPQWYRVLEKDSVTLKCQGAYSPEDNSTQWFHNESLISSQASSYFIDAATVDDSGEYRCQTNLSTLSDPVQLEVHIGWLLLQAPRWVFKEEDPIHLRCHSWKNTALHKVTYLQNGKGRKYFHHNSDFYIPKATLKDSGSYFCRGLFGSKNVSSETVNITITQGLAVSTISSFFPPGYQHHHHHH

Kd [1]: 0.0387 nM
Kd [2]: 343 nM
Kd [3]: 1790 nM
Kd [4]: 38800 nM
Kd [5]: 1.82 nM
Kd [6]: 4.13 nM
Kd [7]: 5290 nM
Kd [8]: 2520 nM
Kd [9]: 1.01 nM
Kd [10]: 0.933 nM
Kd [11]: 0.0106 nM
Kd [12]: 540 nM
Kd [13]: 2320 nM
B1: 04H1654-KT498/04L1610-lam1//04H1656-HT518/04L1610-lam1 (antibody, human IgG1, lambda)
heavy 1: QVQLVESGGGVVQPGGSLRLSCAASGFTFSSKTMNWVRQAPGKGLEWVSSISTQSHYIYYARSVRGRFTISRDNAKNSLYLQMNSLRAEDTAVYYCARYGKREDMLWVFDYWGQGTLVTVSSASTKGPSVFPLAPSSKSTSGGTAALGCLVKDYFPEPVTVSWNSGALTSGVHTFPAVLQSSGLYSLSSVVTVPSSSLGTQTYICNVNHKPSNTKVDKRVEPKSCDKTHTCPPCPAPEFQWGPMVFLFPPKPKDVLMISRTPEVTCVVVDVSDEEPEVKFNWYVDGVEVHNAKTKPREEQYNATYRVVSVLPVLHQDWLNGKEYKCKVSNKALPMPIEKTISKAKGQPREPQVYTLPPSRKEMTKNQVSLTCLVKGFYPSDIAVEWESNGQPENNYKTTPPVLDSDGSFFLYSKLTVDKSRWQQGNVFSCSVMHEALHNHYTQKSLSLSP
heavy 2: QVQLVESGGGVVQPGGSLRLSCAASGFTFSSKTMNWVRQAPGKGLEWVSSISTQSHYIYYAESVRGRFTISRDNAKNSLYLQMNSLRAEDTAVYYCARYGAREDMLWVFDYWGQGTLVTVSSASTKGPSVFPLAPSSKSTSGGTAALGCLVKDYFPEPVTVSWNSGALTSGVHTFPAVLQSSGLYSLSSVVTVPSSSLGTQTYICNVNHKPSNTKVDKRVEPKSCDKTHTCPPCPAPELLGGPSVFLFPPKPKDVLMISRTPEVTCVVVDVSHEEPEVKFNWYVDGVEVHNAKTKPREEQYNATYRVVSVLPVLHQDWLNGKEYKCKVSNDALPMPIEETISKAKGQPREPQVYTLPPSREEMTKNQVSLTCLVKGFYPSDIAVEWESNGQPENNYKTTPPVLDSDGSFFLYSKLTVDKSRWQQGNVFSCSVMHEALHNHYTQESLSLSP
light: QSALTQPPSASGSPGQSVTISCEGPSTGVGDYNWVHWYQQHPGKAPKLMIYFTSKKPSGVPDRFSGSKSGNTASLTVSGLQAEDEADYYCQTYAAPLGPMFGGGTKLTVLGQPKAAPSVTLFPPSSEELQANKATLVCLISDFYPGAVTVAWKADSSPVKAGVETTTPSKQSNNKYAASSYLSLTPEQWKSHRSYSCQVTHEGSTVEKTVAPTECS
notes: also called SW1610-ART12
